Assay results published in article PMC9675756.

Columns and labels:
[1] = target: A3G-CTD2 (catalytically active), crystal and NMR construct (human) (UniProt Q9HC16); test: competitive inhibition of deamination, real-time 1H NMR; settings: N at position 6 = 2'-deoxy-zebularine (replaces target C); hydrated to 4-(R)-hydroxy-3,4-dihydro form in the active enzyme; DTT, 0.002% Tween 20, 50 nM protein, RED-tris-NTA dye, 23 C; NMR inhibition: 50 mM NaPO4 pH 6.5, 100 mM NaCl, 0.00
[2] = target: A3G-CTD2* (catalytically inactive), MST construct E259A (human) (UniProt Q9HC16); test: MST; settings: N at position 6 = 2'-deoxy-zebularine (replaces target C); hydrated to 4-(R)-hydroxy-3,4-dihydro form in the active enzyme; MST: 20 mM Bis-Tris pH 6.5, 100 mM NaCl, 1 mM DTT, 0.002% Tween 20, 50 nM protein, RED-tris-NTA dye, 23 C; NMR inhibition: 50 mM NaPO4 pH 6.5, 100 mM NaCl …
Chain of A3G-CTD2* (catalytically inactive), MST construct E259A (human) (Q9HC16 191-384 E259A): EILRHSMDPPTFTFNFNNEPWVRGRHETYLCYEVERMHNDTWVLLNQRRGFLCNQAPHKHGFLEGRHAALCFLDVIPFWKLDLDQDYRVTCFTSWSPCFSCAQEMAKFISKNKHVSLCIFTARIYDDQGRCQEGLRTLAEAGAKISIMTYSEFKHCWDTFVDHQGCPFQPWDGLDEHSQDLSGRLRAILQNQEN

[3] = target: A3G-CTD2 (catalytically active soluble variant), MST construct (human) (UniProt Q9HC16); test: MST; settings: 23 C, apparent Kd, active enzyme hydrates dZ, N at position 6 = 2'-deoxy-zebularine (replaces target C), hydrated to 4-(R)-hydroxy-3,4-dihydro form in the active enzyme, MST: 20 mM Bis-Tris pH 6.5, 100 mM NaCl, 1 mM DTT, 0.002% Tween 20, 50 nM protein, RED-tris-NTA dye, NMR inhibition: 50 mM NaPO4 pH 6.5, 100 mM NaCl …

Chain of A3G-CTD2 (catalytically active), crystal and NMR construct (human) (Q9HC16 191-384): as the sequence (Q9HC16 191-384 E259A) above, with A69E counted along it

Which Ki [1] does the source give for “AATCCNAAA [5'-AATCCdZAAA (dZ-ssDNA inhibitor)]” here?
The Ki was 3.07 µM.

What about the Kd [2] of the same sequence?
Its Kd is 14.3 µM.

What about the Kd [3] of the same sequence?
Its Kd is 0.27 µM.
